Test: yeast display, Sf9 membrane polyspecificity reagent, FACS + sequencing; frameworks hold sequencing errors
Summary of the method: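 Synthetic nanobody libraries on Saccharomyces cerevisiae BJ5465 were galactose-induced for 36–48 hours, stained 1 hour at 4 °C with 10% biotinylated, detergent-solubilized Sf9 membrane reagent and enriched on streptavidin microbeads. FACS then separated cells into low and high (top ~1%) gates by anti-HA (expression) and streptavidin (reagent binding) fluorescence. Genes were colony-PCR amplified, MiSeq 2 × 250 sequenced and CDR-length filtered. A clone's polyreactivity label is that of its gate of origin.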
In the case of “QVQLVESGGGLVQAGGSLRLSCAASGRIFSYYAMGWYRQAPGKERELVAAISRSGGRTYYADSVKGRFTISRDNAKNTVYLQMNSLKPEDTAVYYCAALQRDYSGRYPVSMYYWGQGTQVTVSS”, the “polyreactivity (PSR sort gate)” value is reported as “high polyreactivity”. With “QVQLVESGGGLVQAGGSLRLSCAASGRIFSYYAMGWYRQAPGKERELVAAISRTGGRTYYADSVKGRFTISRDNAKNTVYLQKNSLKPEDTAVYYCNVVGRRYWHWDQALDYWGQGTQVTVSS” the “polyreactivity (PSR sort gate)” value was “high polyreactivity”. In the case of “QVQLVESGGGLVQAGGSLRLSCAASGRIFSYYAMGWYRQAPGKERELVAAISSSGGSTYYADSVKGRFTISRDNAKNTVYLQMNSLKPEDTAVYYCAKLQYGFGRYGYWGQGTQVTVSS”, the “polyreactivity (PSR sort gate)” value is reported as “high polyreactivity”. In the case of “QVQLVESGGGLVQAGGSLRLSCAASGRIFSYYAMGWYRQAPGKERELVAGIRSGCSTNYADSVKGRFTISRDNAKNTVYLQMNSLKPEDTAVYYCAARYFKFYSKGSFRYLYESWGQGTQVTVSS”, the “polyreactivity (PSR sort gate)” value is reported as “high polyreactivity”. For “QVQLVESGGGLVQAGGSLRLSCAASGRIFSYYAMGWYRQAPGKERELVASISRGSSTYYADSVKGRFTISRDNAKNTVYLQMNSLKPEDTAVYYCARQWLGYPYTTYTGSPVEGYGYWGQGTQVTVSS”, the “polyreactivity (PSR sort gate)” value was “high polyreactivity”. For “QVQLVESGGGLVQAGGSLRLSCAASGRIFSYYAMGWYRQAPGKERELVASITSGGSTYADSVKGRCTISRDSAKNTVYLQMNSLKREDTAVYYCAAGGKRRWPRKHYGYWGQGSQVTVSS”, the “polyreactivity (PSR sort gate)” value was “high polyreactivity”. With “QVQLVESGGGLVQAGGSLRLSCAASGRIFSYYAMGWYRQAPGKERELVATINWRADTYYADSVKGRFTISRDNAKKTVYLQMNSLKPEDSAVYYCAKRPRPTDKYDYWGQGTQVTVSS” the “polyreactivity (PSR sort gate)” value was “high polyreactivity”. For “QVQLVESGGGLVQAGGSLRLSCAASGRIFSYYAMGWYRQAPGKERELVATISYSGGSTYYADSVKGRFTISRDNAKNTVYLQMNSLKPEDTAVYYCAATRYPYYSFVRFPSRRFNYWGQGTQVTVSS”, the “polyreactivity (PSR sort gate)” value was “high polyreactivity”. In the case of “QVQLVESGGGLVQAGGSLRLSCAASGRIFSYYAMGWYRQAPGKERELVAVISRRGDNTYYADSVKGRFTISRDNAKNTVYLQMNSLKPEDTEVFYCAAYSWYAKDFDYWGQGTQVTVSS”, the “polyreactivity (PSR sort gate)” value is reported as “high polyreactivity”. In the case of “QVQLVESGGGLVQAGGSLRLSCAASGRIFSYYDMGWYRQAPGKERELVAAITWRGGSTYYADSVKGRFTISRDNAKNTVYLQMNSLKPEDTAVYYCAADWYPSIWEYDYWGQGSQVTVSS”, the “polyreactivity (PSR sort gate)” value is reported as “low polyreactivity”. For “QVQLVESGGGLVQAGGSLRLSCAASGRIFSYYGMGWYRQAPGKERELVAAISTGGNTNYADSLKGRFTISRDNAKNTVYLQMNSLKPEDTAVYYCAAGFPYKFTYVCGYNHWGQGTQVTVSS”, the “polyreactivity (PSR sort gate)” value was “low polyreactivity”. For “QVQLVESGGGLVQAGGSLRLSCAASGRIFTAYYAMGWYRQAPGKERELVASISSSGTSTYADSVKGRFTISRDNAKNTVYLQMNSLKPEDTAVYYCATRKLRTRRYDYGYWGQGTQVNVSS”, the “polyreactivity (PSR sort gate)” value was “low polyreactivity”. With “QVQLVESGGGLVQAGGSLRLSCAASGRIFTDNVMGWYRQAPGKERELVAAITRRGGSTYYADSVKGRFTISRDNAKNTVYLQMNSLKPEDSAVYYCNARGRLYGHLYDYWGQGTQVTVSS” the “polyreactivity (PSR sort gate)” value was “low polyreactivity”. With “QVQLVESGGGLVQAGGSLRLSCAASGRIFTFYAMGWYRQAPGKERELVATIRNGGSTNYADSVKGRFTISRDNAKNTVYLQMNSLKPEDTAVYYCNTYYYGRRRYGYWGQGTQVTVSS” the “polyreactivity (PSR sort gate)” value was “high polyreactivity”. In the case of “QVQLVESGGGLVQAGGSLRLSCAASGRIFTGNAMGWYRQAPGTERELVAAITKSGGSTYYADSVKGRFTISRDNAKNTVYLQMNSLKPEDTAVYYCAATRYLHYVYKYGYWGQGTQVTVSS”, the “polyreactivity (PSR sort gate)” value is reported as “high polyreactivity”. For “QVQLVESGGGLVQAGGSLRLSCAASGRIFTGNSMGWYRQAPGKERELVAAITSSGGSTYYADSVKGRFTISRDNAKNTVYLQMNSLKPDDTAVYYCAALYSSWWSWYYYWGQGTQVTVSS”, the “polyreactivity (PSR sort gate)” value was “high polyreactivity”. In the case of “QVQLVESGGGLVQAGGSLRLSCAASGRIFTGNVMGWYRQAPGKERELFAAISYGGGSTNYADSVKGRFTISRDNAKNTVYLQMNSLKPEDTAVYYCAAGIKRYLSYYTRYGYWGQGTQVTVSS”, the “polyreactivity (PSR sort gate)” value is reported as “high polyreactivity”. With “QVQLVESGGGLVQAGGSLRLSCAASGRIFTGNVMGWYRQAPGKERELVAAITYRGGSTYYADSVKGRFTISRDNAKNTVYLQMHSLKPEDTAVYYCNTRWDPYGYDYWGQGTQVTVSS” the “polyreactivity (PSR sort gate)” value was “low polyreactivity”. In the case of “QVQLVESGGGLVQAGGSLRLSCAASGRIFTGYAMGWYRQAPGKERELVAAISRGGSTNYADSAKGRFTISRDNAKNTVYLQLNSLKPEDTAVYYCAAGVHWDRGDYWGQGTQVTVSS”, the “polyreactivity (PSR sort gate)” value is reported as “low polyreactivity”. With “QVQLVESGGGLVQAGGSLRLSCAASGRIFTHNDMGWYRQAPGKERELVAAITSGGRTTYADSVKGRFTISRDNAKNTVYLQMNSLKPEDTAVYYCNADTCLGSLDFDKRDYWGQGTQVTVSS” the “polyreactivity (PSR sort gate)” value was “low polyreactivity”. With “QVQLVESGGGLVQAGGSLRLSCAASGRIFTHYAMGWYRQAPGKERELVAAISRTGGTTNYADSVKGRFTISRDNAKNTVYLQMNSLKPEDTADYYCAAVGKGAKDYFKYYSWGQGTQVTVSS” the “polyreactivity (PSR sort gate)” value was “high polyreactivity”. With “QVQLVESGGGLVQAGGSLRLSCAASGRIFTLYDMGWYIQAPGKERELVAAISNSAGSTYYADSVKGRFTISRDNAKNTVYLQMNSLKPEDTAVYYCAAELWSWWGSRDYWGQGTQVTVSS” the “polyreactivity (PSR sort gate)” value was “high polyreactivity”. In the case of “QVQLVESGGGLVQAGGSLRLSCAASGRIFTNNARGWYSQAPGKERELVDAINVSGGRTYYADSVKGRFTISRDNAKNTVYLQMNSLKPEDTAVYYCNKVKETYMDNWGQGTQVTVSS”, the “polyreactivity (PSR sort gate)” value is reported as “high polyreactivity”. With “QVQLVESGGGLVQAGGSLRLSCAASGRIFTNYAMGWSRQAPGKERELVAAITGVGSTNYADSVKGRFTISRDNEKNTVYLQMNSLKPEDTAVYYCNAEYDYVSYVYTGFAFDYWGQGTQVTVSS” the “polyreactivity (PSR sort gate)” value was “low polyreactivity”. For “QVQLVESGGGLVQAGGSLRLSCAASGRIFTNYAMGWYRQAPGKEREFVAAISWSDGSTYYADSVKGRFTISRDNAKNTVYLQMNSLKPEDTAVYYCATEGTYGTFYSYRHFYYWGQGTQVTVSS”, the “polyreactivity (PSR sort gate)” value was “high polyreactivity”. For “QVQLVESGGGLVQAGGSLRLSCAASGRIFTPNAMGWYRQAPGKERELVAAISRSGGSTYYADSVKGRFTISRDTAKNTVYLQMKSLKPEDTAVDYCNKLRTPSSGLDYWGQGTQVTVSS”, the “polyreactivity (PSR sort gate)” value was “high polyreactivity”. For “QVQLVESGGGLVQAGGSLRLSCAASGRIFTPYAMGWYRQAPGKERELVAVIRDGSTYYADSVKGRFTISRDNAKNTVYLQMNSLKPEDPAVSYCSYDIWVWWSGAYDYWGQGNQVTVSS”, the “polyreactivity (PSR sort gate)” value was “low polyreactivity”. With “QVQLVESGGGLVQAGGSLRLSCAASGRIFTPYARGWYRQAPGKERELVAAISGRGGSTYYADSVKGRFTISRDNAKNTVYLQMNSLKPEDTAVYYCAATYFYVYDYGLDYWGQGTQVTVSS” the “polyreactivity (PSR sort gate)” value was “high polyreactivity”. With “QVQLVESGGGLVQAGGSLRLSCAASGRIFTPYVMGWYRQAPGKERELVADINLSGDSTSYADSVKGRFTISRDNAKNTVYLQMNSLKPEDTAVYYCNADSYIYVGNDQYDYWGQGTQVTVSS” the “polyreactivity (PSR sort gate)” value was “low polyreactivity”. With “QVQLVESGGGLVQAGGSLRLSCAASGRIFTQYAMGWYRPAPGKERELVAAISSSGVRTYYADSVKGRFTISRDNAKNNVYLQMNSLKPEDTAVYYCAVRRGGAYYQFGYWGQGTQVTVSS” the “polyreactivity (PSR sort gate)” value was “high polyreactivity”. In the case of “QVQLVESGGGLVQAGGSLRLSCAASGRIFTRNAMGWYRQAPGKERELVAAISGTGGSTYYADSVKGRFTISRDNAKNTVYLQMNSLKPEDTAVYYCAASRARTRSAYNYWGQGTQVTVSS”, the “polyreactivity (PSR sort gate)” value is reported as “high polyreactivity”. With “QVQLVESGGGLVQAGGSLRLSCAASGRIFTRNAMRWYRQAPGKEREFVAAISHSGGSTYADSVKGRFTISRDNAKNTVFLQMNSLKPEDTAVFYCAAEWSSLNFDYWGQGTQVTVSS” the “polyreactivity (PSR sort gate)” value was “low polyreactivity”. For “QVQLVESGGGLVQAGGSLRLSCAASGRIFTRNTMGWYRQAPGKERELVAAISGRGGSTYYADSVKGRFTISRDNAKNTVYLQMNSLKPEDTAVYYCAADGVYRGGYDYWGQVTQVTVSS”, the “polyreactivity (PSR sort gate)” value was “high polyreactivity”. With “QVQLVESGGGLVQAGGSLRLSCAASGRIFTRYAMGWYRQAPGKERELVAAITYSGGSTYYADSVKGRFTISRDNAKNTVYLQMNSLKPEDTAVYYCAAPYIGFVRHRKMGYWGQGTQVTVSS” the “polyreactivity (PSR sort gate)” value was “low polyreactivity”. For “QVQLVESGGGLVQAGGSLRLSCAASGRIFTSNVMGWYRQAPGKERELVAAISWTGGNTYYADSVKGRFTISRDKAKNSVYLQMNSLKPEDTAVYYCAVTYWSAVFIPNKYDYWGQGTQVTVSS”, the “polyreactivity (PSR sort gate)” value was “low polyreactivity”. In the case of “QVQLVESGGGLVQAGGSLRLSCAASGRIFTSYAMGWYRQAPGKEREFVAAITRRGGSTYYADSVKGRFTISRDNAKNTVYLQMKSLKQEDTAVYYCAADIYSVPYPSWARYDYWGQGTQVTVSS”, the “polyreactivity (PSR sort gate)” value is reported as “high polyreactivity”. With “QVQLVESGGGLVQAGGSLRLSCAASGRIFTSYAMGWYRQAPGKERELVAAITSGGRTYYADSVKGRFTISRDNAKNTVYLQKNSLKAEDTAVYYCNAPRYLRYNYCGQGTQVTVSS” the “polyreactivity (PSR sort gate)” value was “high polyreactivity”. In the case of “QVQLVESGGGLVQAGGSLRLSCAASGRIFTSYVMGWDRQAPGKERELVAAITRSGGSTYYADSVKGRFTISRDNAKNTVYLQMNSQKPEDTAVYYCAAGVRGGGGRYRYGYWGQGTQVTVSS”, the “polyreactivity (PSR sort gate)” value is reported as “high polyreactivity”. For “QVQLVESGGGLVQAGGSLRLSCAASGRIFTTNAMGWYRQAPGIERELVAAITYSGGTTYYADSVKGRFTISRDNAKNTVYFQMNSLKPEDTAVYYCAADVKFSPPYDYWGQGTQVTVSS”, the “polyreactivity (PSR sort gate)” value was “low polyreactivity”. For “QVQLVESGGGLVQAGGSLRLSCAASGRIFTTNAMGWYRQAPGKDRELVAAITYSGGTTYYADSVKGRFTISRDNAKNTVYLEMNSLKPEDTAVYYCAADVKFSTPYDYWGQGTQVTVSS”, the “polyreactivity (PSR sort gate)” value was “low polyreactivity”.
